# Reference: patent publication US20200399308A1, “COMPOUNDS AND METHODS FOR ELICITING ANTIMICROBIAL ACTIVITY” (Technion Research & Development Foundation Limited, priority 2018, published 2020)
# Legend:
# Escherichia coli 25922 = experiment: Serum survival assay; format: cell-based; details: mouse serum; 13 μM lactoferrin with 10 μM Compound B
# Description: (§1) Serum survival assays were performed using fresh serum from normal mice or human serum from the Israel Blood Bank; samples were pooled and stored in aliquots at −80° C. until use. Time-dependent killing was determined in a final volume of 125 μL consisting of 112.5 μL of serum containing either a tested compound, egg white lysozyme (Amresco), lactoferrin (Vivinal lactoferrin FD; DMV International, Delhi, N.Y.), anti-murine C5/C5a antibody (25 μg/mL; ab194637; Abcam), or their combination, as specified. These solutions were supplemented with 12.5 μL of bacteria suspended in PBS at the desired concentration. After the specified time points of exposure, cultures were subjected to serial 10-fold dilutions in saline (0.85% NaCl) and plated for bacterial enumeration after incubation at 37° C. for an additional 24 hours. In heat-treated experiments, sera were incubated at 56° C. for 30 minutes for protein inactivation. Data were obtained from 3 independent experiments.
# [1] = system: Klebsiella pneumoniae 1287; experiment: Serum survival assay; format: cell-based; details: mouse serum; 13 μM lactoferrin with 10 μM Compound B
# Description: as §1
molecule,measurement,setting,value
"lactoferrin: host defense antimicrobial protein (Vivinal lactoferrin FD) (protein, UniProt P24627 20-708, looked up) Lactotransferrin: APRKNVRWCTISQPEWFKCRRWQWRMKKLGAPSITCVRRAFALECIRAIAEKKADAVTLDGGMVFEAGRDPYKLRPVAAEIYGTKESPQTHYYAVAVVKKGSNFQLDQLQGRKSCHTGLGRSAGWIIPMGILRPYLSWTESLEPLQGAVAKFFSASCVPCIDRQAYPNLCQLCKGEGENQCACSSREPYFGYSGAFKCLQDGAGDVAFVKETTVFENLPEKADRDQYELLCLNNSRAPVDAFKECHLAQVPSHAVVARSVDGKEDLIWKLLSKAQEKFGKNKSRSFQLFGSPPGQRDLLFKDSALGFLRIPSKVDSALYLGSRYLTTLKNLRETAEEVKARYTRVVWCAVGPEEQKKCQQWSQQSGQNVTCATASTTDDCIVLVLKGEADALNLDGGYIYTAGKCGLVPVLAENRKSSKHSSLDCVLRPTEGYLAVAVVKKANEGLTWNSLKDKKSCHTAVDRTAGWNIPMGLIVNQTGSCAFDEFFSQSCAPGADPKSRLCALCAGDDQGLDKCVPNSKEKYYGYTGAFRCLAEDVGDVAFVKNDTVWENTNGESTADWAKNLNREDFRLLCLDGTRKPVTEAQSCHLAVAPNHAVVSRSDRAAHVKQVLLHQQALFGKNGKNCPDKFCLFKSETKNLLFNDNTECLAKLGGRPTYEEYLGTEYVTAIANLKKCSTSPLLEACAFLTR",sensitization by Compound B to lactoferrin,Escherichia coli 25922,no significant sensitization
same,sensitization by Compound B to lactoferrin,[1],no significant sensitization
